Assay results taken from US20200362047A1 (CRESCENDO BIOLOGICS, published 2020).
Where a chain is given by its changes, count along the chain named.

T1: rhesus CD137Fc recombinant protein (Sino Biologicals cat no. 90847-K02H) (rhesus; human, UniProt H9Z8K9 24-186)
T1 construct: Bought protein; also called rhesus CD137-human IgG1 Fc tagged protein; not shown: human IgG1 Fc tag
T1 sequence: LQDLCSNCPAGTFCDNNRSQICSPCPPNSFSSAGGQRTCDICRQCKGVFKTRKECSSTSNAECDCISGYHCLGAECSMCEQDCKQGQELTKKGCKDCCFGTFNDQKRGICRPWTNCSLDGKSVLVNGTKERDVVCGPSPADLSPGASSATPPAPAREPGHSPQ

T2: mouse CD137Fc protein (Acro Biosystems 41B-M5258) (mouse, UniProt P20334 24-187)
T2 construct: Bought protein; also called mouse CD137 protein; not shown: Fc tag, detected with anti human-Fc
T2 sequence (looked up): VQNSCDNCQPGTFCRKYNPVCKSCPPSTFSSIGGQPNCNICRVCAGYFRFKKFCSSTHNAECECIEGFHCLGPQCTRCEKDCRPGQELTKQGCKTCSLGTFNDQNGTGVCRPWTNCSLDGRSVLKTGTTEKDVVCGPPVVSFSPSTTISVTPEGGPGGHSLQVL

T3: human GITR-Fc (R&D Systems cat no. 689-GR) (human, UniProt Q9Y5U5 26-161)
T3 construct: Bought protein; also called GITR (Glucocorticoid-induced TNFR-related); not shown: Fc tag
T3 sequence (looked up): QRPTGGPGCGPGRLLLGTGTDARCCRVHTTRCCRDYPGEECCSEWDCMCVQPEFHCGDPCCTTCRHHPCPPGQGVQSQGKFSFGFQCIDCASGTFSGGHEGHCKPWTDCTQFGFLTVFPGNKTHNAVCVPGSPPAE

T4: human OX40-Fc (R&D Systems cat no. 3388-OX) (human, UniProt P43489 29-216)
T4 construct: Bought protein; not shown: Fc tag
T4 sequence (looked up): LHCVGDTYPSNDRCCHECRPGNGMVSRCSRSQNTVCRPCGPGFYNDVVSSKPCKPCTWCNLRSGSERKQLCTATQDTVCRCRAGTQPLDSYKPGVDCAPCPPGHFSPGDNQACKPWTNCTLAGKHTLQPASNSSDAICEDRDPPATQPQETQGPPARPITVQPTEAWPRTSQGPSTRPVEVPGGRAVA

B1: Humabody VH 1.16 (VHH)
VHH: EVQLVESGGGLVQPGGSLRLSCVASGFTFSNYWMMWFRQAPGKGLEWVANINQDGSEKYFVDSVEGRFTISRDNAKNSLYLQMNSLRAEDTAVYYCARGGDGYSSSHYGTDVWGQGTTVTVSS
notes: human single VH domain
B2: Humabody VH 1.75 (VHH)
VHH: QVQLVESGGGLVQPGGSLRLSCAASGFTFSDYYMSWIRQAPGKGLEWVANINQDGSERYYVDSVKGRFTISRDNAKNSLYLQMSSLRAEDTAVYFCARGGEGYGVDHYGLDVSGQGTTVTVSS
notes: human single VH domain
B3: Humabody VH 1.81 (VHH)
VHH: B2 VHH with S25T, F29L, D31N, Y33W, S35N, I37V, K65E, N77S, S85N
notes: human single VH domain
B4: Humabody VH 1.39 (VHH)
VHH: EVQLVESGGGLVQPGGSLRLSCAASGFTFSNYWMNWVRQAPGKELEWVANINQDESEKYYVDSVKGRFTVSRDNAKNSLFLQMNSLRADDTAVYYCARGGFGYGDSHFGMDVWGQGTTVTVSS
notes: human single VH domain
B5: Humabody VH 1.63 (VHH)
VHH: EVQLVESGGGLVQPGGSLSLSCAASGFTFRSFWMNWVRQAPGKEAEWVANINQDGSEKYYVDSVKGRFTISRDNAKNSLFLQMNSLRAEDTAVYYCARGGPDYGDLHYGMDVWGQGTTVTVSS
notes: human single VH domain
B6: Humabody VH 2.2 (VHH)
VH: EVQLVESGGGLVKPGGSLRVSCAASGFTFSDYYMSWFRQAPGKGLEWVSYISGSGDIIDYADSVKGRFTISRDNAKNSLYLQMNSLRAEDTAVYHCAKEDSRIPGTTDFDNWGQGTLVTVSSHHHHHH
notes: human single VH domain
B7: Humabody VH 2.20 (VHH)
VHH: EVQLVESGGGLVKPGGSLRLSCAASGFTFSDYYMSWIRQAPGKGLEWVSHISSSGSTIDYADSVKGRFTISRDNAKNSLYLQMNSLRAEDTAVYYCAREDPRMPGTFDFDNWGQGTLVTVSS
notes: human single VH domain
B8: Humabody VH 2.26 (VHH)
VHH: B7 VHH with A23T, S30T, I37F, S56T, E89D, P101I, F107T
notes: human single VH domain
B9: Humabody VH 1.71 (VHH)
VHH: EVQLVESGGGLVQPGGSLRLSCAASGFTFGNYWMIWVRQAPGKELEWLANINQNGSERYYVDSVQGRFTISRDNAKNSLYLQMNSLRAEDTAVYYCARGGADYSNSHYGMDVSGQGTTVTVSS
notes: human single VH domain

Legend:
[1] = biological target: T5, human CD137-human Fc chimeric protein (Acro Biosystems cat no. 41B-H5258) (human, UniProt Q07011 24-186); assay: BLI (Octet RED384), CD137-Fc on Protein G sensors, 1:1 model
T5 construct: Bought protein; The Octet Protein G and Biacore experiments name no catalogue number; also called human CD137Fc recombinant protein; human CD137-Fc recombinant protein; not shown: human IgG1 Fc tag
Description: Binding kinetics of purified VH, bivalent VH and trivalent VH molecules were measured on a ForteBio Octet RED 384 instrument. CD137-Fc tagged protein was diluted to 3 μg/ml in kinetics buffer (0.1% BSA, 0.02% Tween, 1×PBS) and coupled to Protein G biosensors (ForteBio cat no. 18-5082) via the Fc tag. VH were serially diluted (typically 1:2 dilution series starting with 50 nM, VH at the highest concentration) and binding to the CD137-Fc-coupled Protein G biosensors measured. Binding kinetics were determined from the (blank subtracted) sensor gram trace using 1:1 binding models and ForteBio Octet Data Analysis 9.0 software. Example kinetic and binding affinity data obtained is shown Table 10 (monovalent VH) and FIG. 1 (bivalent and trivalent molecules).

[2] = biological target: T5, human CD137-human Fc chimeric protein …; assay: HTRF binding assay
Description: (§1) Binding to human CD137Fc recombinant protein (Acro Biosystems 41B-H5258), rhesus CD137Fc recombinant protein (Sino Biologicals cat no. 90847-K02H) and mouse CD137Fc protein (Acro Biosystems 41B-M5258) was measured using an HTRF Binding assay format. All reagents and serially diluted VH were prepared in assay buffer containing PBS, 0.1% BSA and 0.4M Potassium Fluoride. Samples or assay buffer (non-specific binding) were incubated with 0.5 nM human, rhesus or mouse CD137, 1 nM Anti human-Fc Cryptate PAb (Cisbio cat. no. 61HFCKLB) and 20 nM anti His-D2 (CisBio cat no 61HISDLA) in black 384-shallow well assay plates for a minimum of 3 hours at room temperature. Time-resolved fluorescent emission at 620 nm and 665 nm was measured following excitation at 337 nm on the BMG PHERAstar plate reader. The HTRF ratio were calculated ((665 nm emission/620 nm emission)*10000) and the data corrected for (non-specific binding) to give the specific binding signal. VH bound to human and rhesus CD137 but not to mouse CD137 protein.

[3] = biological target: T1, rhesus CD137Fc recombinant protein …; assay: HTRF binding assay
Description: as §1

[4] = biological target: T2, mouse CD137Fc protein (Acro Biosystems …); assay: HTRF binding assay
Description: as §1

[5] = biological target: T3, human GITR-Fc (R&D Systems cat no. …); assay: ELISA, coated GITR-Fc
Description: (§2) Specificity of binding for CD137 over the tumour necrosis factor receptor family members OX40 and GITR (Glucocorticoid-induced TNFR-related) was determined using an ELISA assay. Nunc Maxisorp plates were coated with 1 ug/ml human CD137-Fc recombinant protein (Acro Biosystems 41B-H5258), human GITR-Fc (R&D Systems cat no. 689-GR) human OX40-Fc (R&D Systems cat no. 3388-OX) in sodium carbonate buffer overnight at 4° C. then washed twice with PBS. Non-specific protein interactions were blocked by incubation with 1% (w/v) skimmed milk powder (Marvel®) in PBS/0.1% Tween-20 for 1 hour at room temperature. Plates were washed twice with PBS then VH or antibody control (1 ug/ml) added for 1 hour at room temperature. Following three washes with PBS/0.1% Tween-20 a 1:1000 dilution of anti His-HRP (VH detection) or anti mouse-HRP (positive control mouse monoclonal antibody detection) was added in 1% Marvel/PBS/0.1% Tween-20. The detection antibodies were allowed to bind for 1 hour at room temperature then the plates were washed twice in PBS/0.1% Tween-20 and once in PBS. The ELISA was developed using TMB substrate and the reaction was stopped by the addition of 50 ul 0.5M H₂SO₄ solution. The absorbance at 450 nm was measured using the BMG Pherastar.

[6] = biological target: T4, human OX40-Fc (R&D Systems cat no. …); assay: ELISA, coated OX40-Fc
Description: as §2

[7] = biological target: T6, human CD137 expressed on the surface of CHO cells (human, UniProt Q07011 24-255); assay: FMAT, CHO human CD137 cells
T6 construct: Also used for the Jurkat reporter cells that express human CD137 (functional rows); also called CHO human CD137 cells; CHO huCD137
Description: Binding of His-tagged molecules to CHO human CD137, CHO parent, CHO human PSMA, DU145 PSMA and DU145 parent cells was assessed using Fluorescence Microvolume Assay Technology (FMAT). All reagents were prepared in FMAT assay buffer (pH 7.4) containing PBS, 0.1% Bovine Serum Albumin, 0.05% Sodium Azide. Serially diluted samples were transferred into 384 well black clear-bottomed assay plates (Costar cat. no. 3655) and incubated for a minimum of 2 hours at room temperature with 1.5 nM Anti-His (Millipore cat. no. 05-949), […] Goat Anti-Mouse Alexa Fluor-488 (Jackson ImmunoResearch cat. no. 115-545-071) and 2000 cells/well pre-stained with DRAQ5 (Thermo Scientific cat. no. 62251). Fluorescence emission was then measured on the TTP Mirrorball plate reader in the FL2 (502 nm-537 nm) and FL5 (677-800 nm) channels following excitation at 488 nm and 640 nm. Data was gated on FL5 perimeter and peak intensity and the FL2 median mean fluorescence intensity of the gated data used for determination of VH binding. Monovalent CD137 specific Humabody® VH, bispecific and trispecific molecules with a CD137 binding arm bound to CHO CD137 expressing cells. Monovalent PSMA specific Humabody® VH, bispecific and trispecific molecules with a PSMA binding arm bound to PSMA expressing cells.

[8] = biological target: T7, CD137 on pre-stimulated human CD8+ T cells (human, UniProt Q07011 24-255); assay: flow cytometry, PMA/ionomycin-stimulated human CD8+ T cells, mean of 2-3 donors
T7 construct: also called pre-stimulated CD8+ cells; primary T cells
Description: Binding to primary T cells was measured using flow cytometry. Peripheral blood mononuclear cells (PBMCs) were isolated from human blood by density gradient centrifugation then CD8+ T cells purified using a negative selection isolation kit according to the manufacturer's protocol (Miltenyi Biotech cat no 130-042-401). T-cells were stimulated PMA/Ionomycin for 48-72 hours in RPMI media supplemented with 10% FBS, 2 mM Glutamine, 1× Pen/Strep. Cells were transferred into 96 well plates, blocked for 10 mins with staining buffer (PBS/1% BSA/0.05% Sodium Azide) then incubated with serially diluted VH in staining buffer (PBS/1% BSA) for 30 mins-1 hour at 4° C. Cells were washed by centrifugation then VH binding detected using Anti His antibody (Millipore 05-949) and Goat Anti Mouse Alexa Fluor-488 (Jackson ImmunoResearch cat no. 115-545-071). A Live Dead near IR stain (Molecular Probes cat no. L10119) was used for discrimination of live cells. After further washing cells were fixed and fluorescence measured by flow cytometry.

[9] = biological target: T6, human CD137 expressed on the surface of …; assay: FMAT ligand inhibition, CD137 Ligand on CHO human CD137 cells
Description: In parallel to the binding assay, periplasmic extracts were tested for their ability to inhibit the interaction of human CD137 ligand protein with CHO human CD137 cells in an FMAT format. Total binding controls containing diluted periplasmic extract sample buffer and non-specific binding controls containing excess non-Fc tagged competitor were set up on each plate for data normalisation. Fluorescence signal was measured using the TTP Mirrorball and the FL2 median mean fluorescence intensity of gated used for the data normalisation. The data was expressed as a % of the total binding control (% control) after subtraction of the background signal determined from the non-specific binding control wells.
The ability of purified Humabody VH to inhibit the binding of CD137 Ligand to CHO human CD137 cells was measured in the FMAT ligand inhibition assay essentially as described in Example 6. VH inhibited the binding of human CD137 Ligand to human CD137.

T6 sequence (Q07011 24-255 limits assumed): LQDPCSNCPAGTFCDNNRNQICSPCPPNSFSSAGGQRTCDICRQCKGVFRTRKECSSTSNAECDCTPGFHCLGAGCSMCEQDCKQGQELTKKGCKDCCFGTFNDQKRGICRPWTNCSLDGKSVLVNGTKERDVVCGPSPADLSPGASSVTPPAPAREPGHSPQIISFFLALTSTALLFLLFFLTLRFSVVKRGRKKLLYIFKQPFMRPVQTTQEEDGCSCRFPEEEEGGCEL
T7 sequence (Q07011 24-255 limits assumed): as above

Binder	Kd [1] [nM]	koff [1] [s⁻¹]	kon [1] [M⁻¹ s⁻¹]	EC50 [2] [nM]	EC50 [3] [nM]	binding result [4]	binding result [5]	binding result [6]	EC50 [7] [nM]	EC50 [8] [nM]	IC50 [9] [nM]
B1	2.4	0.00145	610000	–	–	–	–	–	–	–	–
B2	0.75	0.000353	474000	–	–	–	–	–	–	–	–
B3	0.16	0.000171	1.06e+06	–	–	–	–	–	–	–	–
B4	0.9	0.000505	559000	–	–	–	–	–	–	–	–
B5	2.8	0.000596	217000	–	–	–	–	–	–	–	–
B6	–	–	–	0.91	0.56	no binding	no binding (tested: 1 ug/ml)	no binding (tested: 1 ug/ml)	0.18	0.74	–
B7	1.2	0.002	1.64e+06	–	–	–	–	–	–	–	1.7
B8	4.7	0.00842	1.8e+06	–	–	–	–	–	0.18	2.8	8.5
B9	0.091	2.84e-05	313000	–	–	–	–	–	–	–	–
